The source of these data is the DeepSol protein solubility set.

This data set in a line: soluble on expression in E. coli; label from the status in PepcDB or PDB records.
Regarding “MSLRKFIDLHLHLDGSVPVSTVKKLMQEHDLPIPTDQELRQELSVDSSCKSLDQFLEKFALPNKLMQTRHDLETIVYDLLTELKAQGLVYAEIRFAPQLHTKEGLTQEDAIKAAISGLNKFLYDQKEKNDSPELHAGLILCLMRFSNNQKENIETVELAKKFLNKGVVGLDLAGAEGPIPNIKYKSFFNQAQQLGVPYTIHAGEADGPDSIRQALAMGAKRIGHGIRCTEDTQLTQELIDQQIVLECCATSNMNTKAFDQIDSYPIKKLLHKGMKVTLNSDDMTVSDTNLLHEYKVLEKRTDLTPEEETTLYLNAVDAAFTTPDEKIRLRAFLQKEGHHHHHH”, the “soluble on expression in E. coli” value is “soluble”.

Consider “MSLKVGLKLLQTPKESMLFNIDSYKIIGIGISRGNEKYMKSTICVARNIFTNGILVGSFEGILGGRTARLCSYKFVDYFLNKVSNKVVQESIEESLISTFQRLNEKIKEKNLNDVSSGLVYVFYNKILYFAQCGSIKSYIISNSNIKEIGFDHCLSNNEMKKKIMQKGGLVDNNNMLNGVINVCKCIGESNYHNLLNTTPDITKIEYDDDFKFVLTASKSVWDVIDQNELQSIVINSAHIQPPGIANLIRNIALERNCKGNISVTILSLDSEGHHHHHH”, for which the “soluble on expression in E. coli” value was “soluble”.

On to “MGSDKIHHHHHHMSQQRPDRIKQMLHYLWQHRHLSTQQAIELFGYAEATVRRDFHYIASRYPGMVRGHGCIDFDDSTEDKEYVFDVKRTLQSEAKREIAALARTFIKDGDCFFLDSGSTCLELAKCLVDAKVKVICNDIKIANELGGFPHVESYIIGGLIRPGYFSVGESLALEMINAFAVERAFISCDALSIETGITNATMFEVGVKTRIIQRSREVILMADHSKFDTVEPHAVATLSCITTILSDSALPSAIARRYQQAGCRLIMSDPSSGAR”, for which the “soluble on expression in E. coli” value is reported as “not soluble”.

As to “MSLANKKFWLITDTHFDDEFTVGSSSKCLAIDCCHSNSIPRKGQENFISGSCGDYNCYSPLNVSESAFDYIAKHQSESKLIFWLMDVVPGDVITQSKETNKKRIQLQVEALKKRLSGFRIYPVPGNHDYWLSSNWQYPPQNQWMLDFMGDLFKDWLSPNALEQFKKGGFYTELIDSGVRIIALYLAYVDVYGSHCNEYVENDPAGMMKWFNETLELARKNGERVILLSHEGVGLKESGTIDVVPKFNEDFSYAMNEYSDIIISHLSGHSHFNSFRVLPNITKPTFHIIMNPAMTSFKNLNPRFRLYEYDRKNIKDYTNYMLNINKCNKNNKFEWEIEYNAKELFGIEEYTTKNLKEFIEQLAVDDELWTKFDSHYSTINRKCEGNCRKDLLCSIHCMKESEFITCINQKEGHHHHHH”, the “soluble on expression in E. coli” value was “not soluble”.

On to “MAHHHHHHMSTSYSVTTYMTTTYVNCEDVSGSDSEYSEYDLVNEQMQDFLLDSEDTSDGDADVEDILGFGAVFMGGLMPTRSMDAHQACAWRRTTKPNRRRIAKKSESCSSLSNAARLTASSSTTMLSDLDTVVREAVVTGGAAQRRGTRKQRRAMASGERRWLVPPLSAVSVESTDGGNDGRRQLPWFTVVFDLDETLVGARYGPIHLRPHVGELLRSLHRLPVEIIVWTAGTAHYVNPILHAIGQACGRRQWFHHIISRHKRWYRDTNVSVKDLRQLGRPLDRLVMVENNPISALPQPSLCVLLEDYLQPNAADESLLVLKGLLERLALQYERAARTSSATGTCEQASEEECPAQRHTRSPRNTLRDATATRTTALPSLELLVRDDAALQLVEFRMEDILKEDGVPMLQQAEMRELVGGADTLRCLCLCYTPPLLPSSTAVAPQGTAALMSCVSMAMRSYGSVNPLRPL”, for which the “soluble on expression in E. coli” value is listed as “not soluble”.

In the case of “MNERFGELNFVTPDACSLRRMANKYYPYTMRQSFPLWTSISKEVQIVEGRELPVMQDLADRHPEINKMYGSAEELWENLKTFIDFQGNLQYFEVNPCVSYNHRFFIHKDISSDKKFLYKNDIFLSIQDNLIVRKPVLRNRVSLFMLAYFLKYHEKKLSTSCEFVEYVEKDFDNLINELNDFLLDFIKKPKPVANDANFDWKKVFTRLRNMLPEPMTEEEMSPLADVLKRYFETYPRAQAVGVLNMIEQFCKMMIPRLQKIMDKRPEWFLPNRTKNAKPVLRYFIDGKKPFVMVPEYEIATKEKFQYTDSSFMATGIDTIDLSDISLVASSNGGSLSDFYCIRFNIERTKHTARPIRTTTGTFCKLSADVLLEHLRDLFFGSRVFQSPTRSMFNGYVISMNEIFNSNAQGIYFLEESIIEFVEKISSGLFGTPESKTIRDVPPKGFTVGDVHSELKYLGLLEFFPNISNYAEIAYKKVVAEKKMKILRTCDMFDAVEICMMLAVFNGYPKLAQFLHSQHACHRIQGLQCKKCELEKKHPMMNSWLYPYMEVEEDEKVDSTSSDDEEKRTSTSELAGNGRKSEQKKLAVKDPEPSTMEKETRKSKCCESTKDQLKAFQEQVEALKKEMKELETAMSKNLKN”, the “soluble on expression in E. coli” value is reported as “not soluble”.

For “MSLSIFKRKTKQVNPFEQGWLTDLIDIHCHLLPAVDDGSKSIEETLSLIDLLEEIGVKQHILTPHIMEEYPSNDAIFLRARFEELLAAITPDKASRLRLAAEYMLDVAFLDRLAEPLLTLGDRYILVETSYMAPPIGLMGLLADLRFKGLSPVLAHPERYLYMEEKDYVAIKKQGVMFQLNLFSLFGAYNSSASEKAYALLEAGYYDLIGTDIHHLQPIARLLSEASLPPDLEGKIKSLVENNTRLFSEGHHHHHH”, the “soluble on expression in E. coli” value is given as “soluble”.

On to “MEGGGAKDGSAAAAQTRGSGDDGSHKPLPPCCLKAKAAAAESEAKCHATVVSGWFTEPRSHSGKTSKVQYFNNPMWPGEAHSLKVENILYQGKSPYQEILVFESSTYGNVLVLDGIVQLTEKDECAYQEMVTHLPLCSIPSPKSVLVVGGGDGGVLREIARHASVENIDICEIDQLVIDVCKDFFPQLSVGFKDPRVQLHVGDAVDFLRNAPEGKYDAIIVDSSDPIGPAQELVEKPFFQTIARALKPGGVLCNQAESMWLHTHLIQDMLSICRETFKGAVHYAWTSVPTYPSGVIGFLLCAKEGPAVNFLSPVNPIEKLEGAMEAGREIRFYNSEVHRAAFVLPTFVRRELESHNTCAEKDKSETKPVAKPKKMKIMPNSAIPTAS”, for which the “soluble on expression in E. coli” value is given as “not soluble”.

On to “MNTGAQIYRNSSSSIDKNIVDRIYKDGFLIAQYGLYMKRERDYKTFKVPVDAGFSCPNKDGTIDTRGCIFCPKMGRPISVEYCNIKYSLKDQIETQVKQNKEKGIGKFYVYFYPGTNTHGTPERLKELWDYALSFEDVIGISIGTRPDCLEDEKLDILENYVKQGYEIWIDLGIQTMHDKTLDFLNRKHSSNDIRRVLIECKKRGILVCGHIILGLPDESWNMMMETSKMLSDLEIDALKIYPLVVIENTELEEIYWKGEYKSLDEKQYIHLVSDFLEHLSPYVIIQRVSKDKVPDEIKISPEWSLRRLRILNEVSKELARRNSKQGSKYKK”, for which the “soluble on expression in E. coli” value was “not soluble”.

Take “MSLTDKMQSLALAPVGNLDSYIRAANAWPMLSADEERALAEKLHYHGDLEAAKTLILSHLRFVVHIARNYAGYGLPQADLIQEGNIGLMKAVRRFNPEVGVRLVSFAVHWIKAEIHEYVLRNWRIVKVATTKAQRKLFFNLRKTKQRLGWFNQDEVEMVARELGVTSKDVREMESRMAAQDMTFDLSSDDDSDSQPMAPVLYLQDKSSNFADGIEDDNWEEQAANRLTDAMHGLDERSQDIIRARWLDEDNKSTLQELADRYGVSAERVRQLEKNAMKKLRAAIEAEGHHHHHH”: the “soluble on expression in E. coli” value was “soluble”.

For “ENGRLVELPDNDKSDALQFLATILEAVPSIPAGSNIVEIVLEHEKNSNTSLGFGWACPHARVNFDGDLCCAIGWSPAGIDYGIAGEPLVRLVVMFFVPENQRNTYLKEVSTLARVLKSNPEFQNLEPIGDLDQVRNTLLDMTHQAMSE”, the “soluble on expression in E. coli” value is “not soluble”.

For the sequence “MSWWQRAVIYQVYPRSFQDTNGDGVGDLEGIRRRLPYLKSLGVDALWLSPFYKSPMKDFGYDVADYCDVDPVFGTLQDFDRLLEEAHALGLKVLVDLVPNHTSSEHPWFLESRASRNSPKRDWYIWKDPAPDGGPPNNWQSFFGGPAWTLDEATGQYYLHLFLPEQPDLNWRNPEVREAIKEVMRFWLRRGVDGFRVDVLWLLGKDPLFRDEPGSPLWRPGLPDRARHEHLYTEDQPETYAYVREMRQVLDEFSEPGRERVMVGEIYLPLPRLVRYYAAGCHLPFNFSLVTEGLSDWRPENLARIVETYEGLLSRWDWPNWVLGNHDQPRLASRLGEPQARVAAMLLFTLRGTPTWYYGDELALPNGLIPPEKVQDPAALRQRDREPTAYHTLGRDPERTPMPWDASPYGGFSTVEPWLPLNPDYRTRNVAAQEKDPRSMLHLVKRLIALRKDPDLLYGAYRTYRAREGVYAYLRGEGWLVALNLTEKEKALELPRGGRVVLSTHLDREERVGERLFLRPDEGVAVRLD”, the “soluble on expression in E. coli” value is “soluble”.

“MGHHHHHHSHMRPELLEYYIKVILDYNTAHNKVALSECYTVASVAEMPQNYRPHPQRFTYCSQVLGLHCYKKGIHYWEVELQKNNFCGVGICYGSMNRQGPESRLGRNSASWCVEWFNTKISAWHNNVEKTLPSTKATRVGVLLNCDHGFVIFFAVADKVHLMYKFRVDFTEALYPAFWVFSAGATLSICSPK”: the “soluble on expression in E. coli” value was “not soluble”.

Take “MGSDKIHHHHHHMAINYGVFTISLDFEMYWGVRDKRAISDYAVNLEGIRPAIAGMLDIFTEFNVHATWATVGFLFFRNSEHLSANLPKAIPTYTDINLSPYEYIKNKKLDDRYHFAPDLIQKIISTSGQEVASHTFSHYYCLEDGQTIDQFESDLALAVDTASRLGYKLSSLVFPRNQWNSEYLSVLNKYNIKSFRGNELNWMNSASGQEGQSYFKRAARLLDSYINISGFNTHDISTCLENKPFNFPSSRFLRPYNKKLSFFDCLKLRRIKKAMTHAAKNNELFHLWWHPHNFGAETSKNLDMLREILDHYQYLNKNFGMRSLNMEELSFLEKAYD”: the “soluble on expression in E. coli” value was “not soluble”.

“MGSDKIHHHHHHMAYRNGTYVAFHANGTNRPGGNSDIDYYNLLKAWVGKDDDHFTMNNSHDKASAVRDSSKKETLRASLLERLRNSKNMVLIIGDTTLLDDDWVPFEISSAVDTYEIPIIAVYTQYSTPIRNPAALRSRWPDALATRIDSQKAKVIHIPFKKAALNDAISQFSHNNMPKGPLSFYSDEAYESFGIDG”: the “soluble on expression in E. coli” value is on record as “not soluble”.

With “MGSDKIHHHHHHMKEQILEKLKTVKYPGFEKDIVSFNFVKDIKIQDDGVFIDIEIVSANPEVANEIRKNTIEALSSLALKNIELNIITPKIPEEKSNSRSGKNIAPQVKNFIMVSSGKGGVGKSTTTVNLAISMAKMGKRVGILDADIYGPNIPRMLGETKTQPEVVGQRLKPILTHGVYMMSMGVLIEEGQGLMWRGAMIMKAIEQLLADVIWPELDVLFLDMPPGTGDAQITSAQSIPIAAGVCVSTPQTVSLDDSKRALDMFNKLHIPIAGVIENMSGFLCPDNGKEYDIFGKGTAEDMAKAYKSEVLAQIPIEMIVREGGDEGKPVSFYHPESVSSKRYLMAAEKIWSFIEKINNEGGADNSAIQPVMNGKSACSH”, the “soluble on expression in E. coli” value is on record as “not soluble”.

As to “MSATTKELGNSLWDSLFGTPGVQLTDDDIQNMPYASQYMQLNGGPQLFVVLAFAEDGQQKWVTQDQATLVTQHGRLVKTLLGGDNLIEVNNLAADPLIKPAQIVDGASWTRTMGWTEYQQVRYATARSVFKWDGTDTVKVGSDETPVRVLDEEVSTDQARWHNRYWIDSEGQIRQSEQYLGADYFPVKTTLIKAAKQLEHHHHHH”, the “soluble on expression in E. coli” value is listed as “soluble”.

Consider “MGSDKIHHHHHHMIPIEIDSGSGFCFGVVNAIRHAEKQLEKSSDKLYCLGDIVHNTLEVERLGKKGLETIDYDAFSRLRGAKVLLRAHGEPPEIYRMAGENGVTIIDATCPVVLRLQNKIKSRYEATRSLGAQVVIYGKRGHAEVNGLVGQTEGTAIVIESEEELDKIDYTRPVILFSQTTKSLEGFGQIIDSISTRMQPGVTFEHHDTICRQVANRIPHIGAFATAHELVFFVAGEKSSNGKVLFGHCLAANPRSIFISSPEVIVPDMLVPLPASIGICGATSTPRWQMEEVASHIKALL”, for which the “soluble on expression in E. coli” value was “not soluble”.
